Literature values as cited in US20230313258A1, “CROSS-LINIKING METHODS” (The University of Bath, priority 2020, published 2023).

Target: dimeric AP-1 transcription factor (Homo sapiens, UniProt P05412)
Settings: previously identified (Mason et al. 2006)

Sequence of dimeric AP-1 transcription factor (P05412 whole entry): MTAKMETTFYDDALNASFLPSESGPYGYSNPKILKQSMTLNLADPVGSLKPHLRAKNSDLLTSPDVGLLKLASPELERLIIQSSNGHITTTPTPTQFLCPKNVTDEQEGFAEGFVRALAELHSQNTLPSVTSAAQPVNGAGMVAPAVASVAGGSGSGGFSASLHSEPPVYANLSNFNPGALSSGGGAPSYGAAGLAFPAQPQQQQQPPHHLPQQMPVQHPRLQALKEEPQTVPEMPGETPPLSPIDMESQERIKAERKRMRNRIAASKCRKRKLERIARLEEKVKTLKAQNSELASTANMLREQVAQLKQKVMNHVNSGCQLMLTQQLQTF

In the case of “FosW: parent peptide, SEQ ID NO: 1, ASLDELQAEIEQLEERNYALRKEIEDLQKQLEKLGAP; previously identified inhibitor of AP-1”, the “ability to dissociate AP-1 from its DNA binding site” value is given as “able to dissociate the dimeric AP-1 transcription factor from its DNA binding site”.
